Test results as given in US5677146.

What was measured:
[1] = target: human Factor XIIa (30 nM) (human) (UniProt P00748)
[2] = target: plasma kallikrein (3 nM), Kabi
[3] = target: Trypsin (8 nM), Novo Nordisk A/S, Bagsvaerd, Denmark
[4] = target: Chymotrypsin (2.5 nM), Novo Nordisk A/S
[5] = target: human Factor XIa (1 nM) (human) (UniProt P03951)
[6] = target: recombinant human activated protein C (5 nM), Novo Nordisk A/S (human) (UniProt P04070)
[7] = target: recombinant human Factor VIIa (300 nM), Novo Nordisk A/S (human) (UniProt P08709)
[8] = target: Leukocyte Elastase, purified at Novo Nordisk A/S using the method of Baugh and Travis
[9] = target: human Factor Xa (3 nM) (human) (UniProt P00742)
[10] = target: T1, Cathepsin G, purified at Novo Nordisk A/S using the method of Baugh and Travis
T1 sequence (P08311 21-244, species assumed, looked up): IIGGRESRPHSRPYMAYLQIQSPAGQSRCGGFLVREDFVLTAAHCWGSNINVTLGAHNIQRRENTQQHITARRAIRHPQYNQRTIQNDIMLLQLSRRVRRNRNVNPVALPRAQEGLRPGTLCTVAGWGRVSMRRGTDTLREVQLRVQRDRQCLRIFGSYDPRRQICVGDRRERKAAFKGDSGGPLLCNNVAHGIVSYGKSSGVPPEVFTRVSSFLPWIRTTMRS

[11] = target: Urokinase (5 nM), Serono, Freigung, Germany
[12] = target: glandular kallikrein (1 U/ml), Sigma, St Louis, MO

## APPH Kunitz-type inhibitor domain as tested in Table 3
Plasmin (10 nM), Kabi
  % Inhibition: 77%
[1]
  % Inhibition: 6%
[2]
  % Inhibition: 69%
[3]
  % Inhibition: 99.6%
[4]
  % Inhibition: 61%
[5]
  % Inhibition: 99.8%
[6]
  % Inhibition: 0%
[7]
  % Inhibition: 15%
[8]
  % Inhibition: 4%
[9]
  % Inhibition: 0%
[10]
  % Inhibition: 0%
[11]
  % Inhibition: 2%
[12]
  % Inhibition: 97%
